Experimental data reported in PMC2430598, “Structural Analysis Reveals Conformational Plasticity in the Recognition of RNA 3′ Ends by the Human La Protein”.

Columns and labels:
LaNTD (La 1-194) [1] = molecular target: T1, LaNTD (La 1-194) (Homo sapiens, UniProt P05455 1-194); test: NMR HSQC titration; EMSA: ~1 nM radiolabeled RNA, protocol of Jacks et al. 2003 (buffer, salt, pH, temperature not given); NMR: 15N-LaNTD, RNA:protein 0.2-1.5:1, NMR buffer not given; settings: protein: recombinant; single strand
T1 sequence: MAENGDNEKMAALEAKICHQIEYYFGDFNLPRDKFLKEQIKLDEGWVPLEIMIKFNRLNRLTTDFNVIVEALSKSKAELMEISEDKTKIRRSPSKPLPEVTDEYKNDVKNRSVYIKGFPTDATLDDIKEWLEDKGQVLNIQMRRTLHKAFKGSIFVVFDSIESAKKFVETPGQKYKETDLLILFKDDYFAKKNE

LaNTD (La 1-194) [2] = molecular target: T1, LaNTD (La 1-194); test: EMSA; EMSA: ~1 nM radiolabeled RNA, protocol of Jacks et al. 2003 (buffer, salt, pH, temperature not given); NMR: 15N-LaNTD, RNA:protein 0.2-1.5:1, NMR buffer not given; settings: protein: recombinant, single strand
LaNTD (La 4-194) [3] = molecular target: T2, LaNTD (La 4-194) (Homo sapiens, UniProt P05455 4-194); test: X-ray crystallography; 2.1 A, C2; EMSA: ~1 nM radiolabeled RNA, protocol of Jacks et al. 2003 (buffer, salt, pH, temperature not given); NMR: 15N-LaNTD, RNA:protein 0.2-1.5:1, NMR buffer not given; settings: protein: recombinant; tags: N-terminal 6xHis removed by thrombin; leaves Gly-Ser; single strand
T2 sequence: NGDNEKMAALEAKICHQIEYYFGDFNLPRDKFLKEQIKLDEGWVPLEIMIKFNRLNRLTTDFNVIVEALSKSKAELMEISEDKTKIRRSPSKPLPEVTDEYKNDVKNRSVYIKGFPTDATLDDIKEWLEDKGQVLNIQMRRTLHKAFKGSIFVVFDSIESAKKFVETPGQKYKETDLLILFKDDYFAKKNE

LaNTD (La 4-194) [4] = molecular target: T2, LaNTD (La 4-194); test: X-ray crystallography; 2.8 A, C222; EMSA: ~1 nM radiolabeled RNA, protocol of Jacks et al. 2003 (buffer, salt, pH, temperature not given); NMR: 15N-LaNTD, RNA:protein 0.2-1.5:1, NMR buffer not given; settings: protein: recombinant; tags: N-terminal 6xHis removed by thrombin; leaves Gly-Ser; single strand
LaNTD (La 1-194) [5] = molecular target: T1, LaNTD (La 1-194); test: NMR HSQC titration; split resonances, two states; EMSA: ~1 nM radiolabeled RNA, protocol of Jacks et al. 2003 (buffer, salt, pH, temperature not given); NMR: 15N-LaNTD, RNA:protein 0.2-1.5:1, NMR buffer not given; settings: protein: recombinant; single strand
LaNTD (La 1-194) [6] = molecular target: T1, LaNTD (La 1-194); test: NMR HSQC titration and relaxation; EMSA: ~1 nM radiolabeled RNA, protocol of Jacks et al. 2003 (buffer, salt, pH, temperature not given); NMR: 15N-LaNTD, RNA:protein 0.2-1.5:1, NMR buffer not given; settings: protein: recombinant; single strand
LaNTD (La 1-194) [7] = molecular target: T1, LaNTD (La 1-194); test: EMSA; reference oligomer for relative Kd; EMSA: ~1 nM radiolabeled RNA, protocol of Jacks et al. 2003 (buffer, salt, pH, temperature not given); NMR: 15N-LaNTD, RNA:protein 0.2-1.5:1, NMR buffer not given; settings: protein: recombinant; label: radiolabeled; single strand
LaNTD (La 4-194) [8] = molecular target: T2, LaNTD (La 4-194); test: X-ray crystallography; 1.8 A, P21212; only last two U modelled; EMSA: ~1 nM radiolabeled RNA, protocol of Jacks et al. 2003 (buffer, salt, pH, temperature not given); NMR: 15N-LaNTD, RNA:protein 0.2-1.5:1, NMR buffer not given; settings: protein: recombinant; tags: N-terminal 6xHis removed by thrombin; leaves Gly-Ser; single strand

UCUU (ssRNA)
binding result (LaNTD (La 1-194) [1]): binds

CACACAAAUU (ssRNA)
binding signal (LaNTD (La 1-194) [2]; label: radiolabeled): 2.8 ± 1.1 Kd relative to CACACAAUUU (30 nM)

UUUUUUUUUU (ssRNA) [UUUUUUUUUU (U10)]
binding signal (LaNTD (La 1-194) [2]; (radiolabeled) in gel shift, unlabeled in NMR): 1 ± 0.4 Kd relative to CACACAAUUU (30 nM)

AUAUUUU (ssRNA)
binding result (LaNTD (La 4-194) [3]): binds

AUUUU (ssRNA)
binding result (LaNTD (La 4-194) [4]): binds | binding result (LaNTD (La 1-194) [5]): binds

CACACACCUU (ssRNA)
binding signal (LaNTD (La 1-194) [2]; label: radiolabeled): 2.4 ± 0.5 Kd relative to CACACAAUUU (30 nM)

CACACAUUUU (ssRNA)
binding signal (LaNTD (La 1-194) [2]; label: radiolabeled): 0.8 ± 0.3 Kd relative to CACACAAUUU (30 nM)

CACACAUAUU (ssRNA)
binding signal (LaNTD (La 1-194) [2]; label: radiolabeled): 1 ± 0.2 Kd relative to CACACAAUUU (30 nM)

ACACACUUUU (ssRNA)
binding signal (LaNTD (La 1-194) [2]; label: radiolabeled): 0.7 ± 0.2 Kd relative to CACACAAUUU (30 nM)

CACACACUUU (ssRNA)
binding signal (LaNTD (La 1-194) [2]; label: radiolabeled): 1.2 ± 0.4 Kd relative to CACACAAUUU (30 nM)

UUU (ssRNA)
binding result (LaNTD (La 1-194) [6]): binds

UUUU (ssRNA)
binding result (LaNTD (La 1-194) [6]): binds

CACACAAUUU (ssRNA)
Kd (LaNTD (La 1-194) [7]): 30 nM

AUAAUUU (ssRNA)
binding result (LaNTD (La 4-194) [3]): binds

CACACAACUU (ssRNA)
binding signal (LaNTD (La 1-194) [2]; label: radiolabeled): 2 ± 0.8 Kd relative to CACACAAUUU (30 nM)

UUUUUUUU (ssRNA) [UUUUUUUU (U8)]
binding result (LaNTD (La 4-194) [8]): binds

CACACAUCUU (ssRNA)
binding signal (LaNTD (La 1-194) [2]; label: radiolabeled): 1.4 ± 0.5 Kd relative to CACACAAUUU (30 nM)
